These are literature values, as cited in paper PMC9502310.

This data set addresses IL-1β (Homo sapiens) (UniProt P01584).

B15 (from UniProt P25212): the Kd – broadly, the equilibrium constant for the complex coming apart – is 0.234 nM.
